Biological target: the molecule itself
Assay: crystal structure; hanging drop vapor diffusion at 18 °C; 25% PEG3350, 50 mM Tris pH8.5, 200 mM di-sodium tartrate; no reducing agents present; space group P1, eight molecules in the asymmetric unit

B1: glucocorticoid receptor (GR) DNA binding domain (DBD), residues 418–517 (domain or fragment, UniProt P04150 418-517, looked up)
chain: PKLCLVCSDEASGCHYGVLTCGSCKVFFKRAVEGQHNYLCAGRNDCIIDKIRRKNCPACRYRKCLQAGMNLEARKTKKKIKGIQQATTGVSQETSENPGN
notes: In the crystal two molecules are linked by a disulfide bridge via Cys431 (no reducing agents during crystallization); Each molecule holds two Zn2+; Mixed with a 35 nt RNA hairpin before crystallization, but no nucleic acid was found in the crystal; also called GR DBD; free GR DBD; not shown: His6-Sumo, N-terminal, cleaved
binding result: binds

Reference: publication PMC6131172, “The first crystal structure of a DNA-free nuclear receptor DNA binding domain sheds light on DNA-driven allostery in the glucocorticoid receptor” (Scientific Reports, 2018)
